From paper PMC9159911 come the findings set out here.

The subject of the data set is SmpB (small protein B) (Aeromonas veronii). The data set is described as follows: MST. The note with it: […], pH 7.4), temperature not stated, binding buffer not stated.

For orientation: Kd means the concentration at which binding is half-saturated. Low values mean a tighter complex, high ones a looser complex. “PompA C52AT (native ompA promoter fragment)” displayed a Kd of 0.93 µM.
Then PompA T52GC (CAT at +52 to TGC), with 126 µM.
